The text below walks through data of patent publication US6569419B2, “Methods for promoting production of myelin by Schwann cells” (ZymoGenetics, Inc., priority 2000, dated 2003).

In one assay the test system is primary Schwann cells. The experiment in a line: MBP induction in pure Schwann cell cultures (Western blot, densitometry). Format: cell-based, rat. The following applies: for Mean MBP induction (as percent of progesterone induction): mean ± SD; for MBP accumulation (in words): in the absence of progesterone pretreatment. On the procedure:
Primary Schwann cell cultures and dorsal root ganglia (DRG)-Schwann cell co-cultures were established. Rat primary Schwann cells were isolated as described by Einheber et al., J. Cell Biol. 123:1223-1236 (1994). Schwann cells were grown in 100 mm poly-L-lysine coated plates in Dulbecco's modified Eagles medium (DMEM) supplemented with 10% fetal bovine serum (FBS), pituitary extract (1 mg/ml) and 10 μM forskolin; up to 80-90% confluency.
The effect of Zcyto7 was tested in pure Schwann cell culture and in a co-culture of DRG and Schwann cells. Primary Schwann cells were grown to 80-90% confluency in 100 mm plates as described above. 12 h before treatment media was changed to 10 ml of N2 (defined medium) with or without 1 μM progesterone. The Zcyto7 solutions were added as 1.1 ml of 10×solution in N2 media, and cells were incubated for 48 hours (h). Cells were washed once with Hanks balanced salt solution (HBSS). The cell suspension was frozen on dry ice, thawed, pelleted and resuspended in 100 μl of lysis buffer, 125 mM tris (hydroxymethyl) aminomethane HCl (Tris HCl) pH7.0, 15% sucrose, 4% sodium dodecyl sulfate (SDS), 10 mM ethylenediaminetetraacetic acid (EDTA). Lysates were boiled for 5 minutes (min) on a water bath and cooled on ice. The protein concentration was determined using 4 μl in a BioRad BCA assay. Each sample was then supplemented with dithiothreitol (DTT) to a final concentration of 10 mM phenylmethylsulfonyl fluoride (PMSF)—to 2 mM, pepstatin and leupeptin—to 10 μg/ml.
60 μg of protein from each sample were separated on 4-12% Tris-Glycin NOVEX gels at 125 V constant for 1.5 h. Each gel contained vehicle control, vehicle supplemented with progesterone control, and randomly chosen samples from treatment groups. Transfer to poly (vinylidine difluoride) (PVFD) membrane was carried out according to the NOVEX electrotransfer protocol, at 25 V, for 40 min. Membranes were rinsed with tris buffered saline (TBS) for 3 min, and blocked with TBS/0.1% TWEEN-20/2% BSA for 1 h. Membranes were then incubated with 1:1000 dilution of anti-MBP mouse monoclonal IgG (Boehringer, Mannheim) in TBS/0.1% TWEEN-20, 0.5% BSA overnight, at 4° C. After washing 4 times for 30 min with TBS/0.1% TWEEN-20, membranes were incubated with anti-mouse horseradish peroxidase conjugate (1:20,000 dilution in TBS/0.1% TWEEN-20, incubated with SUPERSIGNAL chemiluminescent HRP substrate (Pierce Chemical Co., Rockford, Ill.) and exposed to Kodak X-Ray film for 15-20 min.
Density of myelin basic protein (MBP) bands was measured on LYNX Densitometer (Applied imaging) with ILLUMA System and expressed as percent progesterone-induced control MBP.
In experiment 1, the effect of the 4 different solutions of Zcyto7 on MBP accumulation was evaluated in pure Schwann cell cultures, with and without progesterone pretreatment. Solution A275F was evaluated in experiment 1 at 1 ng/ml, 10 ng/ml, 100 ng/ml and 1 μg/ml.
Four controls were included in each experiment: test vehicle alone, vehicle supplemented with progesterone, vehicle supplemented with IL-17, and vehicle supplemented with progesterone and IL-17 [See J. Immunol, 150:5445-5456 (1993)]. Three replicates were set up per each condition.
(A western blot detects proteins with antibodies after separation by electrophoresis.)

Assay [1] concerns DRG-Schwann cell co-cultures. Briefly: Production of myelin (MBP immunofluorescence signal density) in DRG-Schwann cell co-cultures. The format is cell-based, rat. The following applies: DRG-Schwann cell co-culture, 3.5 weeks. On the procedure: Dissociated neuronal cultures from normal rats were established as described by Kleitman et al., Tissue culture methods for the study of myelination, in Culturing Nerve Cells, Banker and Goslin, Eds, pp. 338-378(MIT Press, Cambridge, Mass., 1992). Briefly, DRG were dissected out from the rats, treated with 0.25% trypsin, mechanically dissociated, washed, and resuspended in L15 medium with 10% fetal calf serum. The neurons were plated onto 12-mm glass coverslips coated with ammoniated rat tail collagen (Biomedical Technologies, Inc.) for microscopic evaluation. Starting one day following the dissection, cultures were treated over a 2-week period with three cycles of 5-fluorodeoxyuridine and uridine (both at 10 μM) in standard medium to assure a pure neuronal population. Standard medium consisted of minimum essential medium (MEM) supplemented with 10% FBS, 2 mM glutamine, 0.4% glucose, and 50 ng/m β-nerve growth factor (β-NGB).
Myelinating co-cultures were established by seeding the purified neurons with rat primary Schwann cells as described Einheber, et al., id.
After establishing the myelinating co-cultures, Schwann cells were allowed to proliferate for one week attached to the neurons. The medium was then changed to 15% and 50 μg/ml ascorbate was added to promote basal lamina formation and to initiate myelination. The effect of the Zcyto7 was evaluated for 3.5 weeks in the presence of ascorbate, with the medium changed every two days. Cultures were then fixed in 3.7% formaldehyde for 10 minutes and made permeable in 100% methanol for 15 minutes at −20° C. Following with PBS having 3% BSA, the samples were incubated with mouse anti-MBP antibody (Boehringer-Mannheim) overnight, washed and incubated with Cy3-labeled anti-mouse IgG. Samples were washed, mounted in VECTASHIELD and examined by epifluorescence with a Zeiss AXIOSKOP microscope.
Myelin production was quantitatively and qualitatively evaluated, and myelin density was determined for each of the five replicates per condition. Six representative regions in each sample were captured using a low-level light COHUE digital camera, and the density of fluorescent signal determined using the National Institutes of Health (NIH) Scion Image. The mean and standard deviation of myelin density was calculated for each group and converted to a percentage by dividing by the density seen in the appropriate control culture. Morphometric measurements were carried out using double blind analysis.
Solution A258F was chosen on the basis of the results of experiment 1 was evaluated in experiment 2 for myelin formation in DRG-Schwann co-cultures. […]

Where [2] appears, read: 1 ng/ml, without progesterone, pure Schwann cells, 48 h.
Where [3] appears, read: 10 ng/ml, without progesterone, pure Schwann cells, 48 h.
The mark [4] stands for this setting: 100 ng/ml, without progesterone, pure Schwann cells, 48 h.
[5] abbreviates: 1 μg/ml, without progesterone, pure Schwann cells, 48 h.
Where [6] appears, read: Prog + 1 ng/ml, pure Schwann cells, 48 h.
Where [7] appears, read: Prog + 10 ng/ml, pure Schwann cells, 48 h.
[8] abbreviates: Prog + 100 ng/ml, pure Schwann cells, 48 h.
The mark [9] stands for this setting: Prog + 1 μg/ml, pure Schwann cells, 48 h.

In the case of “IL-17: Interleukin-17; solution at 50 μg/ml of PBS, pH 7.0; control in the experiments”, the “Mean MBP induction (as percent of progesterone induction)” value in the assay on primary Schwann cells (Prog + IL-17 control, in column A258 F) is recorded as 199.30 ± 23.21% of progesterone induction; with primary Schwann cells (Prog + IL-17 control, in column A275 F), 214.50 ± 103.80% of progesterone induction; with primary Schwann cells (Prog + IL-17 control, in column A311 F), 180.60 ± 123.80% of progesterone induction. In addition, the “MBP Signal Density (mean ± SD)” value in assay [1] (Ascorbic acid (AA) + 10 ng/ml) amounted to 11.65 ± 0.78.

B1: A258 F: Solution of human Zcyto7 expressed in BHK cells, 0.603 mg/ml of PBS at pH 6.0 (protein, UniProt Q9UHF5 21-180, looked up)
Interleukin-17B: QPRSPKSKRKGQGRPGPLAPGPHQVPLDLVSRMKPYARMEEYERNIEEMVAQLRNSSELAQRKCEVNLQLWMSNKRSLSPWGYSINHDPSRIPVDLPEARCLCLGCVNPFTMQEDRSMVSVPVFSQVPVRRRLCPPPPRTGPCRQRAVMETIAVGCTCIF
In the case of B1, the “Mean MBP induction (as percent of progesterone induction)” value is given as 81.47 ± 7.75% of progesterone induction in the assay with primary Schwann cells (setting [2]); 41.59 ± 32.29% of progesterone induction with primary Schwann cells (setting [3]); 117.00 ± 42.89% of progesterone induction with primary Schwann cells (setting [4]); 152.80 ± 27.95% of progesterone induction in the assay on primary Schwann cells (setting [5]); 117.00 ± 15.83% of progesterone induction in the assay on primary Schwann cells (setting [6]); 187.20 ± 18.43% of progesterone induction in the assay with primary Schwann cells (setting [7]). The figures for the “Mean MBP induction (as percent of progesterone induction)” value in the assay on primary Schwann cells (setting [8]) and with primary Schwann cells (setting [9]) were 265.90 ± 32.09% of progesterone induction and 174.30 ± 25.59% of progesterone induction, respectively. In addition, the “MBP accumulation (in words)” value in the assay on primary Schwann cells (100 ng/ml) is “significantly induced MBP accumulation”. For the same molecule, in the assay on primary Schwann cells (pure Schwann cell cultures), the “Concentration of maximal effect on MBP accumulation” value was 100 ng/mL. Besides, the “MBP induction (in words)” value in the assay with primary Schwann cells (pure Schwann cell cultures) is reported as “induced MBP accumulation in dose-dependent manner”. Besides, the “MBP Signal Density (mean ± SD)” value in assay [1] (Ascorbic acid (AA) + 1 ng/ml) is given as 20.04 ± 8.55; in assay [1] (Ascorbic acid (AA) + 10 ng/ml) it was 47.74 ± 23.60; in assay [1] (Ascorbic acid (AA) + 100 ng/ml), 74.74 ± 19.22.

B2: A258 G: Solution of human Zcyto7 expressed in BHK cells, 0.089 mg/ml of PBS+0.1% BSA at pH 6.0 (protein, UniProt Q9UHF5 21-180, looked up)
Interleukin-17B: QPRSPKSKRKGQGRPGPLAPGPHQVPLDLVSRMKPYARMEEYERNIEEMVAQLRNSSELAQRKCEVNLQLWMSNKRSLSPWGYSINHDPSRIPVDLPEARCLCLGCVNPFTMQEDRSMVSVPVFSQVPVRRRLCPPPPRTGPCRQRAVMETIAVGCTCIF
Regarding B2, the “MBP accumulation (in words)” value with primary Schwann cells (100 ng/ml) is on record as “significantly induced MBP accumulation”. Moreover, the entries for the “Mean MBP induction (as percent of progesterone induction)” value with primary Schwann cells (setting [4]) and in the assay on primary Schwann cells (setting [8]) were 210 ± 115.20% of progesterone induction and 152 ± 19.38% of progesterone induction, respectively.

B3: A275 F: Solution of murine Zcyto7 expressed in BHK cells, 1 mg/ml of PBS at pH 6.0 (protein, UniProt Q9QXT6 23-180, looked up)
Interleukin-17B: RNTKGKRKGQGRPSPLAPGPHQVPLDLVSRVKPYARMEEYERNLGEMVAQLRNSSEPAKKKCEVNLQLWLSNKRSLSPWGYSINHDPSRIPADLPEARCLCLGCVNPFTMQEDRSMVSVPVFSQVPVRRRLCPQPPRPGPCRQRVVMETIAVGCTCIF
On to B3, for which the “Mean MBP induction (as percent of progesterone induction)” value in the assay on primary Schwann cells (setting [2]) was 102.40 ± 21.33% of progesterone induction; in the assay with primary Schwann cells (setting [3]), 123.40 ± 50.34% of progesterone induction; in the assay with primary Schwann cells (setting [4]) it was 210.60 ± 9708% of progesterone induction; in the assay with primary Schwann cells (setting [5]) it was 170.90 ± 49.63% of progesterone induction; in the assay with primary Schwann cells (setting [6]), 48.77 ± 45.44% of progesterone induction; in the assay with primary Schwann cells (setting [7]), 121.00 ± 78.16% of progesterone induction. Moreover, the entries for the “Mean MBP induction (as percent of progesterone induction)” value in the assay with primary Schwann cells (setting [8]) and in the assay on primary Schwann cells (setting [9]) were 278.00 ± 95.43% of progesterone induction and 280.80 ± 62.95% of progesterone induction, respectively. Further, the “MBP accumulation (in words)” value with primary Schwann cells (100 ng/ml) is listed as “significantly induced MBP accumulation”.
